Results reported in patent US20070020269A1 (published 2007).

What was measured:
[1] = target: T1, p21-C (UniProt P38936 91-164); test: co-immunoprecipitation (anti-myc IP, anti-flag blot), co-transfected 293T cells
T1 construct: not shown: myc-tag from pcDNA3 vector
Text: (§1) In order to determine the interacting regions of RX50 and p21, the 293T cells were co-transfected with RX50 and p21, RX50 and p21-D1, RX50 and p21-D2, RX50 and p21-D3, RX50 and p21-C, RX50 and p21-N, respectively. The transfected cells were allowed to grow 24 hrs before lysis. The supernatant was collected by centrifugation. The […] were subjected to immunoprecipitation with anti-myc antibody and Protein G. The product of co-immunoprecipitation was electrophoresised on SDS-PAGE, transferred onto a nitro cellulose membrane, and then subjected to immunoblot with a enzyme-labeled anti-flag antibody. […] It was inferred that the region of p21 interacting with RX50 was located between amino acid residue 40 to 60 of p21.

[2] = target: T2, p21-D3 (UniProt P38936 60-164); test: as above
T2 construct: not shown: myc-tag from pcDNA3 vector
Text: as §1

T2 sequence (P38936 60-164): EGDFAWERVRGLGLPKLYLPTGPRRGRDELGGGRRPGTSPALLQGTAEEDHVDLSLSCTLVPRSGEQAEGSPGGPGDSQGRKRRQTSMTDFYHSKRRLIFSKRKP
T1 sequence (P38936 91-164): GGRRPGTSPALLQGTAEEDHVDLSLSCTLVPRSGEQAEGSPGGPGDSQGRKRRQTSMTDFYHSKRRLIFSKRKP

B1: Flag-RX50 (enzyme)
chain: MHGYFGCNAAAEPGYSAFVGTPQICVTKFSTRNCQGMDSVIKPLDTIPEDKKVRVQRTQSTFDPFEKPANQVKRVHSENNACINFKTSSTGKESPKVRRHSSPSSPTSPKFGKADSYEKLEKLGEGSYAYVYKGKSKVNGKLVALKVIRLQEEEGTPFTAIREASIIKGLKHANIVLLHDIIHTKETLTLVFEYYHTDLCQYMDKHPGGLHPDNVKLFLFQLLRGLSYIHQRYILHRDLKPGNLLISDTGELKLADFGLAKAKSVPSHTTSNEVVYLWYRPPDVLLGSTEYSTCLDMWGVGCIFVEMIQGVAAFPGMKDIQDQLERIFLVLGTPNEDTWPGVHSLPHFKPERFTLYSSKNLRQAWNKLSYVNHAEDLASKLLQCSPKNRLSAQAALSHEYFSDLPPRLWELTDMSSIFTVPNVRLQPEAGESMRAFGKNNSYGKSLSNSKH
notes: Expressed in transfected 293T cells; also called RX50 protein; not shown: N-terminal flag-tag from modified pcDNA3.1
- binding result [1]: no binding
- binding result [2]: no binding
